Assay results published in patent US20090087417A1, “METHODS FOR PROMOTING DOPAMINERGIC NEURONAL DEVELOPMENT BY USING NG4A-SUBFAMILY AND WNT-LIGANDS” (priority 2002, published 2009).

System: E14.5 VM precursor cultures
Assay: Real time RT-PCR of gene expression in Wnt-treated VM precursor cultures
Type: cell-based, rat
Conditions: 3 days in vitro
From the text: Total RNA was isolated from confluent T1A astrocyte cultures derived from ventral mesencephalon, dorsal mesencephalon and cortex of P1 rats and from tissue dissected from E10.5, E11.5, E13.5, E15.5 and P1 ventral and dorsal mesencephalon, and E14, E16, E18 and P1 cortex, using RNeasy extraction kit (Qiagen, Hilden, Germany). Total RNA was also extracted from E14.5 VM precursor cultures (7.5 million cells in 100 mm dishes) treated with wnts for 3 days in vitro (triplicate determination). For the reverse transcription, […] of total RNA was initially treated with 1 unit RQ1 Rnase-free DNAse (Promega, Madison, USA) for 40 minutes. The DNAse was inactivated by the addition of 1 μl of EDTA 0.02M and incubation at 65° C. for 10 minutes. 0.5 μg random primers (Life Technologies, Grand Island, N.Y., USA) were then added, and the mixture was incubated at 70° C. for 10 minutes. Each sample was then equally divided in two tubes, a cDNA reaction tube and a negative control tube. A master mix containing 1× First-Strand Buffer (Life Technologies, Grand Island, N.Y., USA), 0.01M DTT (Life Technologies, Grand Island, N.Y., USA) and 0.5 mM dNTPS (Promega, Madison, USA) was then added to both cDNA and RT− tubes and incubated at 25° C. for 10 minutes, followed by a 2 minutes incubation at 42° C. 200 units of Superscript II reverse transcriptase (Life Technologies, Grand Island, N.Y., USA) were then added only to the cDNA tubes and all sample were incubated at 42° C. for 50 minutes. Superscript II was inactivated with an incubation for 10 minutes at 70° C. Both cDNA and RT− were then diluted 10 times, for further analysis.
Real-time PCR was performed in triplicates, with 1 μl 1:10 diluted cDNA and RT−, in a total volume of 25 μl. Each PCR reaction consisted on 1×PCR buffer (Life Technologies, Grand Island, N.Y., USA), 3 mM MgCl2 (Life Technologies, Grand Island, N.Y., USA), 0.2 mM dNTPs (Promega, Madison, USA), 0.3 μM each of the forward and reverse primers, 1 unit Platinum Taq DNA polymerase (Life Technologies, Grand Island, N.Y., USA) and 1×SYBR Green (Molecular Probes, Leiden, The Netherlands). The PCR was performed at 94° C. for 2 min and then for 35-40 cycles at 94° C. for 30 s, at 60° C. for 30-45 s, at 72° C. for 45-60 s and at 80° C. for 15 s (for SYBR Green detection) on the ABI PRISM 5700 Detection System (PE Applied Biosystems, Foster City, Calif., USA). Other annealing temperatures included 54° C. for Wnt 5a, 57° C. for p27, 62° C. for Cyclin D1, 61° C. for Cyclin D2 and 65° C. for p57. A melting curve was obtained for each PCR product after each run, in order to confirm that the SYBR Green signal corresponded to a unique and specific amplicon. The specificity of the PCR product was verified by sequencing.
Standard curves were generated in every 96-wells plate real time PCR run, using serial 3-fold dilutions of a reverse transcribed RNA or plasmid containing the sequence of interest for every probe. The resulting standard curve plots were then used to convert the Cts (number of PCR cycles needed for a given template to be amplified to an established fluorescence threshold) into arbitrary quantities of initial template of a given sample.
The expression levels were obtained by subtracting the RT− value for each sample from the corresponding RT+ value and then dividing that number by the value of the house-keeping gene, 18S, obtained for every sample in parallel assays.
Statistical analysis of the results was performed by one way ANOVA. Fisher's protected least significant difference was used post hoc to identify specific points at which the different developmental stages differed from the earliest, only when significant interactions occurred. Significance for all tests was assumed at the level of p<0.05 (*p<0.05; **p<0.001; ***p<0.000).

Molecule | cyclin D1 mRNA | cyclin D2 mRNA | cyclin D3 mRNA | p27 mRNA | p57 mRNA | Ptx3 mRNA | c-ret expression | expression of GFR[…]1 | expression of NCAM | p21 mRNA expression
Wnt-7a: Partially purified / conditioned media from Wnt-7a overexpressing fibroblast cell line (protein, UniProt P24383 32-349, looked up, conditioned medium, Partially purified / conditioned media from Wnt-7a overexpressing fibroblast cell line) Protein Wnt-7a: LGASIICNKIPGLAPRQRAICQSRPDAIIVIGEGSQMGLDECQFQFRNGRWNCSALGERTVFGKELKVGSREAAFTYAIIAAGVAHAITAACTQGNLSDCGCDKEKQGQYHRDEGWKWGGCSADIRYGIGFAKVFVDAREIKQNARTLMNLHNNEAGRKILEENMKLECKCHGVSGSCTTKTCWTTLPQFRELGYVLKDKYNEAVHVEPVRASRNKRPTFLKIKKPLSYRKPMDTDLVYIEKSPNYCEEDPVTGSVGTQGRACNKTAPQASGCDLMCCGRGYNTHQYARVWQCNCKFHWCCYVKCNTCSERTEMYTCK | increased | not regulated | No regulation | decreased | decreased |  |  |  |  | 
Wnt-2: Partially purified / conditioned media from Wnt-2 overexpressing fibroblast cell line (protein, UniProt P21552 26-360, looked up, conditioned medium, Partially purified / conditioned media from Wnt-2 overexpressing fibroblast cell line) Protein Wnt-2: SWWYMRATGGSSRVMCDNVPGLVSRQRQLCHRHPDVMRAIGLGVAEWTAECQHQFRQHRWNCNTLDRDHSLFGRVLLRSSRESAFVYAISSAGVVFAITRACSQGELKSCSCDPKKKGSAKDSKGTFDWGGCSDNIDYGIKFARAFVDAKERKGKDARALMNLHNNRAGRKAVKRFLKQECKCHGVSGSCTLRTCWLAMADFRKTGDYLWRKYNGAIQVVMNQDGTGFTVANKRFKKPTKNDLVYFENSPDYCIRDREAGSLGTAGRVCNLTSRGMDSCEVMCCGRGYDTSHVTRMTKCECKFHWCCAVRCQDCLEALDVHTCKAPKSADWATPT | slight upregulation | increases | No regulation | increases | increases |  |  |  |  | 
Wnt-5a: Partially purified conditioned media from stable fibroblast cell line engineered to secrete Wnt-5a ligand (protein, left off: small tags and cut ends) IIGAQPLCSQLAGLSQGQKKLCHLYQDHMQYIGEGAKTGIKECQYQFRHRRWNCSTVDNTSVFGRVMQIGSRETAFTYAVSAAGVVNAMSRACREGELSTCGCSRAARPKDLPRDWLWGGCGDNIDYGYRFAKEFVDARERERIHAKGSYESARILMNLHNNEAGRRTVYNLADVACKCHGVSGSCSLKTCWLQLADFRKVGDALKEKYDSAAAMRLNSRGKLVQVNSRFNSPTTQDLVYIDPSPDYCVRNESTGSLGTQGRLCNKTSEGMDGCELMCCGRGYDQFKTVQTERCHCKFHWCCYVKCKKCTEIVDQFVCK | not | not affected | not |  | not | increased | upregulated | maintained | maintained | neither affected
Wnt-1: Partially purified conditioned media from stable fibroblast cell line engineered to secrete Wnt-1 ligand (protein, left off: small tags and cut ends) ANSSGRWWGIVNIASSTNLLTDSKSLQLVLEPSLQLLSRKQRRLIRQNPGILHSVSGGLQSAVRECKWQFRNRRWNCPTAPGPHLFGKIVNRGCRETAFIFAITSAGVTHSVARSCSEGSIESCTCDYRRRGPGGPDWHWGGCSDNIDFGRLFGREFVDSGEKGRDLRFLMNLHNNEAGRTTVFSEMRQECKCHGMSGSCTVRTCWMRLPTLRAVGDVLRDRFDGASRVLYGNRGSNRASRAELLRLEPEDPAHKPPSPHDLVYFEKSPNFCTYSGRLGTAGTAGRACNSSSPALDGCELLCCGRGHRTRTQRVTERCNCTFHWCCHVSCRNCTHTRVLHECL | upregulated | not affected | upregulated | downregulated | downregulated |  | not | repressed | repressed | neither affected
